Reference: patent US6380373B1, “Steroid receptor coactivator compositions and methods of use” (Baylor College of Medicine, priority 1995, dated 2002)

Columns and labels:
Format in all cases: cell-based
hPR = target: T1, hPR (Homo sapiens, UniProt P06401); assay: Squelching of hPR transactivation by hER and its reversal by SRC-1, CAT assay in HeLa cells
T1 construct: expressed in transfected cells; host or cells: HeLa
T1 sequence (P06401 1-933): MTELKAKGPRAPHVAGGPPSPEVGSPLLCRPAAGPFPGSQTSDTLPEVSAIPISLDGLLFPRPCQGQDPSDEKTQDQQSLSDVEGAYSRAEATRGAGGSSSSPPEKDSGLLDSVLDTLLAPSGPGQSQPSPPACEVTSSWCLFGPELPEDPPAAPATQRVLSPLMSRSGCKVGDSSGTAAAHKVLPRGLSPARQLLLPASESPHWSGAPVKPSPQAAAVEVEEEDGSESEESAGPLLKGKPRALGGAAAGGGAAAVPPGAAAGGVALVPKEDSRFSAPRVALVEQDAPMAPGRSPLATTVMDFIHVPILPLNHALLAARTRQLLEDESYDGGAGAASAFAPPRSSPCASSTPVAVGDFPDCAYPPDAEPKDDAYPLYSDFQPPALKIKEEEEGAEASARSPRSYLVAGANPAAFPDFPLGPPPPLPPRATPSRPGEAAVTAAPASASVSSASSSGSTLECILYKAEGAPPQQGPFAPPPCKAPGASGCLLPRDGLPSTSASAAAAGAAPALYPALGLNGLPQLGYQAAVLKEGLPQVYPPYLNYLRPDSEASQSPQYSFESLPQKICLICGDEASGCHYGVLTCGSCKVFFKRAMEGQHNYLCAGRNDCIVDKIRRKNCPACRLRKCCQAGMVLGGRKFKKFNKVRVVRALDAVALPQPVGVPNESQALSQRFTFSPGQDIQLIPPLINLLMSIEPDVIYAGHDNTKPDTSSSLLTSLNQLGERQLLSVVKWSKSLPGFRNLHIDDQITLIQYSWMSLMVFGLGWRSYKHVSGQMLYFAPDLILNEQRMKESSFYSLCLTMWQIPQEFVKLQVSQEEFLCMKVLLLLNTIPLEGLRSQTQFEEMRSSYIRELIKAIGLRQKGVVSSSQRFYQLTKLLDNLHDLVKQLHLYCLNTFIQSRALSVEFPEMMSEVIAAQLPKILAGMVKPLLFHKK
Method: (§1) Lipofectin (GibcoBRL) was selected for transfection of Hela cells.
HeLa cells were transfected with 1 μg of both hPR and hER expression vectors, together with 5 μg of PRE2-TATA-CAT and increasing amounts of SRC-1. Cells were then exposed to ligands R5020 and/or E2 (2×10^−8 M) and CAT activities determined 42 h later using 40 μg of proteins extract. The percentage of chloramphenicol conversion to the mono and diacetylated form was determined and represents the average of three independent experiments (Xn=3±SEM).

ER = target: T2, ER (Homo sapiens, UniProt P03372); assay: CAT reporter assay ER/ERE2-TATA-CAT in HeLa cells; details: 3 μg SRC-1, estradiol 2×10^−8 M
T2 construct: expressed in transfected cells; host or cells: HeLa
T2 sequence (P03372 1-595): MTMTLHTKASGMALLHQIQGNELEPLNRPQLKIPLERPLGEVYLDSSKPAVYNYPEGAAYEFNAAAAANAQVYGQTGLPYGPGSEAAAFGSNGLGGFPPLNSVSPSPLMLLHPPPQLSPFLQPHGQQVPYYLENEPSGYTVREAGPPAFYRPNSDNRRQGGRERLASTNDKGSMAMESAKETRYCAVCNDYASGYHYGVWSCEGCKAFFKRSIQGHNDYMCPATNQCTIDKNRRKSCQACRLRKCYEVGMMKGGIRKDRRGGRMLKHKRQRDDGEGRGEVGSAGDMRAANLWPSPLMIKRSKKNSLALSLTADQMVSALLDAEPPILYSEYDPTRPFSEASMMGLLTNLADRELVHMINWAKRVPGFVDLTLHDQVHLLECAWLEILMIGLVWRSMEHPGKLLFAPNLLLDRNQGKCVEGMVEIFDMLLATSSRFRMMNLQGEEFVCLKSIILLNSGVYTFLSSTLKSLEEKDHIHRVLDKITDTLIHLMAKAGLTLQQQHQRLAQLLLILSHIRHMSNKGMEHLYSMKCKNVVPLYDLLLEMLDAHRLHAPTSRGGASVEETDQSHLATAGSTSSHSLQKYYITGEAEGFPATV
Method: (§2) Biol. 13, 6501-6508), Sp1 and Sp1-tk-CAT (Courey, A. J. and Tjian, R. (1988), Cell 55, 887-898), CREB and CRE-tk-CAT (Chrivia, J. C. et al., (1993), Nature 365, 855) and GAL4VP16 and 17mer-tk-CAT (Baniahmad, A. et al., (1992), EMBO J. 11, 1015-1023) have been previously described and the above references are incorporated herein by reference in their entirety, including any drawings.
as §1
(§3) HeLa cells were cotransfected with 0.5 μg of cDNAs encoding various steroid receptors indicated and 5 μg of their cognates HREs containing reporters, including PR/PRE2-TATA-CAT, ER/ERE2-TATA-CAT, GR/PRE2-TATA-CAT, TR-/DR4-tk-CAT and RXR/DR1-tk-CAT, along with 3 μg of SRC-1 or empty expression vector. Cells were then treated with their corresponding ligands (PR:R5020, ER:estradiol, GR:dexamethasone, TR:Triac, RXR:9-cis retinoic acid) at a concentration of 2×10^−8M. The CAT activity of the reporter was determined using 14 μg of protein extract.

TR = target: T3, TR (Homo sapiens, UniProt P10828); assay: CAT reporter assay TR/DR4-tk-CAT in HeLa cells; parameters: expressed in transfected cells; details: 3 μg SRC-1, Triac 2×10^−8 M
T3 sequence (P10828 1-461): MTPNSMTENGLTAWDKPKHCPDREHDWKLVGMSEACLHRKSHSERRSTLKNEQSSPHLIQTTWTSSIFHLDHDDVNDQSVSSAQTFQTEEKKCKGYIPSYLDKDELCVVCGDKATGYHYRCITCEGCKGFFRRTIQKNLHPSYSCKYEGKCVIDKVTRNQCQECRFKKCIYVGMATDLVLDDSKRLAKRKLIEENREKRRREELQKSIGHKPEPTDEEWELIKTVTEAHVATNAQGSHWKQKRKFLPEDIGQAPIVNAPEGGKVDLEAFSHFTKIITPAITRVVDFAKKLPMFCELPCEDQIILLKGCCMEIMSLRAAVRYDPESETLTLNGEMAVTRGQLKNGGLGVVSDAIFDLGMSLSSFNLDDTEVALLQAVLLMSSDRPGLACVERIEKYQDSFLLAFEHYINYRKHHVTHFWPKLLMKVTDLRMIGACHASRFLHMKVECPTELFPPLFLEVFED
Method: as §2, §1, §3

B1: steroid receptor coactivator-one (SRC-1), full-length (protein)
chain: MSIPRVNPSVNPSISPAHGVARSSTLPPSNSNMVSTRINRQQSSDLHSSSHSNSSNSQGSFGCSPGSQIVANVALNKGQASSQSSKPSLNLNNPPMEGTGISLAQFMSPRRQVTSGLATRPRMPNNSFPPNISTLSSPVGMTSSACNNNNRSYSNIPVTSLQGMNEGPNNSVGFSASSPVLRQMSSQNSPSRLNIQPAKAESKDNKEIASTLNEMIQSDNSSSDGKPLDSGLLHNNDRLSDGDSKYSQTSHKLVQLLTTTAEQQLRHADIDTSCKDVLSCTGTSNSASANSSGGSCPSSHSSLTARHKILHRLLQEGSPSDITTLSVEPDKKDSASTSVSVTGQVQGNSSIKLELDASKKKESKDHQLLRYLLDKDEKDLRSTPNLSLDDVKVKVEKKEQMDPCNTNPTPMTKATPEEIKLEAQSQFTADLDQFDQLLPTLEKAAQLPGLCETDRMDGAVTSVTIKSEILPASLQSATARPTSRLNRLPELELEAIDNQFGQPGTGDQIPWTNNTVTAINQSKSEDQCISSQLDELLCPPTTVEGRNDEKALLEQLVSFLSGKDETELAELDRALGIDKLVQGGGLDVLSERFPPQQATPPLIMEERPNLYSQPYSSPFPTANLPSPFQGMVRQKPSLGTMPVQVTPPRGAFSPGMGMQPRQTLNRPPAAPNQLRLQLQQRLQGQQQLIHQNRQAILNQFAATAPVGINMRSGMQQQITPQPPLNAQMLAQRQRELYSQQHRQRQLIQQQRAMLMRQQSFGNNLPPSSGLPVQTGNPRLPQGAPQQFPYPPNYGTNPGTPPASTSPFSQLAANPEASLANRNSMVSRGMTGNIGGQFGTGINPQMQQNVFQYPGAGMVPQGEANFAPSLSPGSSMVPMPIPPPQSSLLQQTPPASGYQSPDMKAWQQGAIGNNNVFSQAVQNQPTPAQPGVYNNMSITVSMAGGNTNVQNMNPMMAQMQMSSLQMPGMNTVCPEQINDPALRHTGLYCNQLSSTDLLKTEADGTQQVQQVQVFADVQCTVNLVGGDPYLNQPGPLGTQKPTSGPQTPQAQQKSLLQQLLTE
With B1 as the molecule, how does the “reversal of hER squelching of hPR transactivation” value (hPR; HeLa cells, increasing amounts of SRC-1, dose-dependent, in the presence of estrogen) read?
Its value is ~16 fold.

And the “stimulation of PR transactivation” value (hPR; highest concentration of SRC-1 (2 μg), without estrogen squelching)?
The value was ~5 fold.

What about the “effect on ER transcriptional activity” value (ER) of the same molecule?
The value was “enhance”.

And the “effect on TR transcriptional activity” value (TR)?
The value was “enhance”.
